Laboratory results published in paper PMC6544321, “Structural insights into histone chaperone Chz1-mediated H2A.Z recognition and histone replacement” (PLoS Biology, 2019).

B1: middle region of Chz1 (Chz1 64-124) (domain or fragment, S. cerevisiae (budding yeast), UniProt P40019 64-124, looked up)
chain: TVEDSESDMDDAKLDALMGNEGEEEEDDLAEIDTSNIITSGRRTRGKVIDYKKTAEELDKK
notes: Chz1, budding yeast, residues 64-124; also called Chz1-M; source: E. coli BL21-CodonPLUS(DE3)-RIPL, purified (Ni-NTA, HiTrap Q)
B2: middle and C-terminal region of Chz1 (Chz1 64-153) (domain or fragment, S. cerevisiae (budding yeast), UniProt P40019 64-153, looked up)
chain: TVEDSESDMDDAKLDALMGNEGEEEEDDLAEIDTSNIITSGRRTRGKVIDYKKTAEELDKKEPSTGSKDDVGYGEKEEDDEDEEDDDFKE
notes: Chz1, budding yeast, residues 64-153; only residues 142-153 are seen in the crystal structure; also called Chz1-MC; Chz1-MC WT; source: E. coli BL21-CodonPLUS(DE3)-RIPL, purified (Ni-NTA, HiTrap Q)
B3: single chain H2A-H2B with H2A N91G (other)
chain: MRKETYSSYIYKVLKQTHPDTGISQKSMSILNSFVNDIFERIATEASKLAAYNKKSTISAREIQTAVRLILPGELAKHAVSEGTRAVTKYSSSTQAQSRSAKAGLTFPVGRVHRLLRRGNYAQRIGSGAPVYLTAVLEYLAAEILELAGNAARDNKKTRIIPRHLQLAIRGDDELNKLLGNVTIAQGGVLPNI
B4: single chain H2A-H2B with H2A NKLGNV→DSIRA (other)
chain: RKETYSSYIYKVLKQTHPDTGISQKSMSILNSFVNDIFERIATEASKLAAYNKKSTISAREIQTAVRLILPGELAKHAVSEGTRAVTKYSSSTQAQSRSAKAGLTFPVGRVHRLLRRGNYAQRIGSGAPVYLTAVLEYLAAEILELAGNAARDNKKTRIIPRHLQLAIRNDDELDSLIRATIAQGGVLPNI
B5: single chain H2A-H2B with H2A P50A (other)
chain: RKETYSSYIYKVLKQTHPDTGISQKSMSILNSFVNDIFERIATEASKLAAYNKKSTISAREIQTAVRLILPGELAKHAVSEGTRAVTKYSSSTQAQSRSAKAGLTFPVGRVHRLLRRGNYAQRIGSGAAVYLTAVLEYLAAEILELAGNAARDNKKTRIIPRHLQLAIRNDDELNKLLGNVTIAQGGVLPNI
B6: yeast single chain H2A-H2B (other)
chain: RKETYSSYIYKVLKQTHPDTGISQKSMSILNSFVNDIFERIATEASKLAAYNKKSTISAREIQTAVRLILPGELAKHAVSEGTRAVTKYSSSTQAQSRSAKAGLTFPVGRVHRLLRRGNYAQRIGSGAPVYLTAVLEYLAAEILELAGNAARDNKKTRIIPRHLQLAIRNDDELNKLLGNVTIAQGGVLPNI
modifications: Limits and order (H2B then H2A) are taken by homology from scZB in 2JSS/6AE8. The paper's H2B numbers are mature (+1 on precursor) and its H2A numbers are precursor. H2A.1 paralogue assumed.

What was measured:
Conditions in all cases: both partners purified
[1] = target: B6; test: ITC; 0.2 M NaCl (Table 1); Swc2-Z or Chz1-M injected into single-chain histone dimers; otherwise as the ITC methods (25°C, 20 mM MES pH 6.0)
[2] = target: B6; test: ITC; MicroCal VP-ITC, 25°C, 20 mM MES (pH 6.0), 0.5 M NaCl; chaperone (50 or 150 μM) injected into histones (5 μM scZB or 15 μM scAB and mutants) in the cell; one-site fit
[3] = target: B5; test: as above
[4] = target: B3; test: as above
[5] = target: B4; test: as above
[6] = target: B2; test: as above
[7] = target: B1; test: ITC; 0.2 M NaCl (Table 1); Swc2-Z or Chz1-M injected into single-chain histone dimers; otherwise as the ITC methods (25°C, 20 mM MES pH 6.0)
[8] = target: T1, Swc2-Z, the 1–136 segment of the Swc2 subunit of the SWR1 complex (yeast); test: as above
T1 construct: SWR complex protein 2 (Swc2), subunit of the yeast SWR1 complex, residues 1-136

[9] = target: B1; test: ITC; MicroCal VP-ITC, 25°C, 20 mM MES (pH 6.0), 0.5 M NaCl; chaperone (50 or 150 μM) injected into histones (5 μM scZB or 15 μM scAB and mutants) in the cell; one-site fit

## B1
[1]
  stoichiometry N: 1 sites
[2]
  stoichiometry N: 0.7 sites

## B2
[2]
  stoichiometry N: 0.9 sites
[3]
  stoichiometry N: 1 sites
[4]
  stoichiometry N: 1 sites
[5]
  stoichiometry N: 0.9 sites

## B3
[6]
  Kd: 420 ± 20 nM

## B4
[6]
  Kd: 5080 ± 180 nM

## B5
[6]
  Kd: 530 ± 40 nM

## B6
[7]
  Kd: 300 ± 2 nM
[8]
  Kd: 200 ± 70 nM
[9]
  Kd: 7870 ± 350 nM
[6]
  Kd: 5020 ± 420 nM
